{
  "source": "the Human Domainome abundance scans (Beltran et al. 2025)",
  "note": "± gives the uncertainty stated by the source.",
  "data": [
    {"experiment": "abundance fitness (aPCA) (normalised: wild type 0, dead -1); higher = more abundant; growth selection in yeast, the domain comes from the species named", "conditions": "Homo sapiens", "values": [
      {"substance": "Lipoamide acyltransferase component of branched-chain alpha-keto acid dehydrogenase complex, mitochondrial A173C, P11182", "abundance fitness": "-0.163 ± 0.092"},
      {"substance": "Lipoamide acyltransferase component of branched-chain alpha-keto acid dehydrogenase complex, mitochondrial A173D, P11182", "abundance fitness": "-0.296 ± 0.067"},
      {"substance": "Lipoamide acyltransferase component of branched-chain alpha-keto acid dehydrogenase complex, mitochondrial A173E, P11182", "abundance fitness": "-0.219 ± 0.07"},
      {"substance": "Lipoamide acyltransferase component of branched-chain alpha-keto acid dehydrogenase complex, mitochondrial A173F, P11182", "abundance fitness": "-0.439 ± 0.096"},
      {"substance": "Lipoamide acyltransferase component of branched-chain alpha-keto acid dehydrogenase complex, mitochondrial A173G, P11182", "abundance fitness": "-0.287 ± 0.036"},
      {"substance": "Lipoamide acyltransferase component of branched-chain alpha-keto acid dehydrogenase complex, mitochondrial A173K, P11182", "abundance fitness": "-0.391 ± 0.068"},
      {"substance": "Lipoamide acyltransferase component of branched-chain alpha-keto acid dehydrogenase complex, mitochondrial A173L, P11182", "abundance fitness": "-0.411 ± 0.058"},
      {"substance": "Lipoamide acyltransferase component of branched-chain alpha-keto acid dehydrogenase complex, mitochondrial A173M, P11182", "abundance fitness": "-0.135 ± 0.057"},
      {"substance": "Lipoamide acyltransferase component of branched-chain alpha-keto acid dehydrogenase complex, mitochondrial A173N, P11182", "abundance fitness": "-0.424 ± 0.14"},
      {"substance": "Lipoamide acyltransferase component of branched-chain alpha-keto acid dehydrogenase complex, mitochondrial A173P, P11182", "abundance fitness": "-0.406 ± 0.087"},
      {"substance": "Lipoamide acyltransferase component of branched-chain alpha-keto acid dehydrogenase complex, mitochondrial A173Q, P11182", "abundance fitness": "-0.441 ± 0.048"},
      {"substance": "Lipoamide acyltransferase component of branched-chain alpha-keto acid dehydrogenase complex, mitochondrial A173R, P11182", "abundance fitness": "-0.608 ± 0.04"},
      {"substance": "Lipoamide acyltransferase component of branched-chain alpha-keto acid dehydrogenase complex, mitochondrial A173S, P11182", "abundance fitness": "-0.186 ± 0.046"},
      {"substance": "Lipoamide acyltransferase component of branched-chain alpha-keto acid dehydrogenase complex, mitochondrial A173T, P11182", "abundance fitness": "-0.05 ± 0.042"},
      {"substance": "Lipoamide acyltransferase component of branched-chain alpha-keto acid dehydrogenase complex, mitochondrial A173V, P11182", "abundance fitness": "-0.059 ± 0.054"},
      {"substance": "Lipoamide acyltransferase component of branched-chain alpha-keto acid dehydrogenase complex, mitochondrial A173W, P11182", "abundance fitness": "-0.279 ± 0.071"},
      {"substance": "Lipoamide acyltransferase component of branched-chain alpha-keto acid dehydrogenase complex, mitochondrial A173Y, P11182", "abundance fitness": "-0.153 ± 0.19"},
      {"substance": "Lipoamide acyltransferase component of branched-chain alpha-keto acid dehydrogenase complex, mitochondrial A176C, P11182", "abundance fitness": "-0.173 ± 0.051"},
      {"substance": "Lipoamide acyltransferase component of branched-chain alpha-keto acid dehydrogenase complex, mitochondrial A176D, P11182", "abundance fitness": "-0.047 ± 0.043"},
      {"substance": "Lipoamide acyltransferase component of branched-chain alpha-keto acid dehydrogenase complex, mitochondrial A176E, P11182", "abundance fitness": "-0.043 ± 0.06"},
      {"substance": "Lipoamide acyltransferase component of branched-chain alpha-keto acid dehydrogenase complex, mitochondrial A176G, P11182", "abundance fitness": "-0.074 ± 0.038"},
      {"substance": "Lipoamide acyltransferase component of branched-chain alpha-keto acid dehydrogenase complex, mitochondrial A176H, P11182", "abundance fitness": "-0.128 ± 0.06"},
      {"substance": "Lipoamide acyltransferase component of branched-chain alpha-keto acid dehydrogenase complex, mitochondrial A176I, P11182", "abundance fitness": "-0.115 ± 0.089"},
      {"substance": "Lipoamide acyltransferase component of branched-chain alpha-keto acid dehydrogenase complex, mitochondrial A176K, P11182", "abundance fitness": "-0.312 ± 0.065"},
      {"substance": "Lipoamide acyltransferase component of branched-chain alpha-keto acid dehydrogenase complex, mitochondrial A176L, P11182", "abundance fitness": "-0.21 ± 0.046"},
      {"substance": "Lipoamide acyltransferase component of branched-chain alpha-keto acid dehydrogenase complex, mitochondrial A176M, P11182", "abundance fitness": "-0.127 ± 0.043"},
      {"substance": "Lipoamide acyltransferase component of branched-chain alpha-keto acid dehydrogenase complex, mitochondrial A176N, P11182", "abundance fitness": "-0.113 ± 0.097"},
      {"substance": "Lipoamide acyltransferase component of branched-chain alpha-keto acid dehydrogenase complex, mitochondrial A176P, P11182", "abundance fitness": "-0.203 ± 0.043"},
      {"substance": "Lipoamide acyltransferase component of branched-chain alpha-keto acid dehydrogenase complex, mitochondrial A176Q, P11182", "abundance fitness": "0.017 ± 0.058"},
      {"substance": "Lipoamide acyltransferase component of branched-chain alpha-keto acid dehydrogenase complex, mitochondrial A176R, P11182", "abundance fitness": "-0.143 ± 0.036"},
      {"substance": "Lipoamide acyltransferase component of branched-chain alpha-keto acid dehydrogenase complex, mitochondrial A176S, P11182", "abundance fitness": "-0.036 ± 0.039"},
      {"substance": "Lipoamide acyltransferase component of branched-chain alpha-keto acid dehydrogenase complex, mitochondrial A176T, P11182", "abundance fitness": "-0.067 ± 0.051"},
      {"substance": "Lipoamide acyltransferase component of branched-chain alpha-keto acid dehydrogenase complex, mitochondrial A176V, P11182", "abundance fitness": "-0.168 ± 0.041"},
      {"substance": "Lipoamide acyltransferase component of branched-chain alpha-keto acid dehydrogenase complex, mitochondrial A176W, P11182", "abundance fitness": "-0.473 ± 0.045"},
      {"substance": "Lipoamide acyltransferase component of branched-chain alpha-keto acid dehydrogenase complex, mitochondrial A176Y, P11182", "abundance fitness": "-0.16 ± 0.06"},
      {"substance": "Lipoamide acyltransferase component of branched-chain alpha-keto acid dehydrogenase complex, mitochondrial D197A, P11182", "abundance fitness": "-0.235 ± 0.036"},
      {"substance": "Lipoamide acyltransferase component of branched-chain alpha-keto acid dehydrogenase complex, mitochondrial D197C, P11182", "abundance fitness": "-0.319 ± 0.095"},
      {"substance": "Lipoamide acyltransferase component of branched-chain alpha-keto acid dehydrogenase complex, mitochondrial D197E, P11182", "abundance fitness": "-0.098 ± 0.05"},
      {"substance": "Lipoamide acyltransferase component of branched-chain alpha-keto acid dehydrogenase complex, mitochondrial D197F, P11182", "abundance fitness": "-0.26 ± 0.17"},
      {"substance": "Lipoamide acyltransferase component of branched-chain alpha-keto acid dehydrogenase complex, mitochondrial D197H, P11182", "abundance fitness": "0.025 ± 0.11"},
      {"substance": "Lipoamide acyltransferase component of branched-chain alpha-keto acid dehydrogenase complex, mitochondrial D197I, P11182", "abundance fitness": "-1.31 ± 0.15"},
      {"substance": "Lipoamide acyltransferase component of branched-chain alpha-keto acid dehydrogenase complex, mitochondrial D197K, P11182", "abundance fitness": "-0.23 ± 0.048"},
      {"substance": "Lipoamide acyltransferase component of branched-chain alpha-keto acid dehydrogenase complex, mitochondrial D197L, P11182", "abundance fitness": "-0.337 ± 0.055"},
      {"substance": "Lipoamide acyltransferase component of branched-chain alpha-keto acid dehydrogenase complex, mitochondrial D197M, P11182", "abundance fitness": "-0.382 ± 0.082"},
      {"substance": "Lipoamide acyltransferase component of branched-chain alpha-keto acid dehydrogenase complex, mitochondrial D197P, P11182", "abundance fitness": "-0.76 ± 0.13"},
      {"substance": "Lipoamide acyltransferase component of branched-chain alpha-keto acid dehydrogenase complex, mitochondrial D197Q, P11182", "abundance fitness": "-0.183 ± 0.044"},
      {"substance": "Lipoamide acyltransferase component of branched-chain alpha-keto acid dehydrogenase complex, mitochondrial D197S, P11182", "abundance fitness": "-0.205 ± 0.041"},
      {"substance": "Lipoamide acyltransferase component of branched-chain alpha-keto acid dehydrogenase complex, mitochondrial D197T, P11182", "abundance fitness": "-0.45 ± 0.06"}
    ]}
  ]
}
